Measurements published in patent US20100183520A1.

Biological target: UNC5B netrin-1 receptor on mouse leukocytes / CD4+ T cells (mouse) (UniProt Q8K1S3)
Assay: cell-based or functional assay

UniProt Q8K1S3, sequence (Q8K1S3 27-945): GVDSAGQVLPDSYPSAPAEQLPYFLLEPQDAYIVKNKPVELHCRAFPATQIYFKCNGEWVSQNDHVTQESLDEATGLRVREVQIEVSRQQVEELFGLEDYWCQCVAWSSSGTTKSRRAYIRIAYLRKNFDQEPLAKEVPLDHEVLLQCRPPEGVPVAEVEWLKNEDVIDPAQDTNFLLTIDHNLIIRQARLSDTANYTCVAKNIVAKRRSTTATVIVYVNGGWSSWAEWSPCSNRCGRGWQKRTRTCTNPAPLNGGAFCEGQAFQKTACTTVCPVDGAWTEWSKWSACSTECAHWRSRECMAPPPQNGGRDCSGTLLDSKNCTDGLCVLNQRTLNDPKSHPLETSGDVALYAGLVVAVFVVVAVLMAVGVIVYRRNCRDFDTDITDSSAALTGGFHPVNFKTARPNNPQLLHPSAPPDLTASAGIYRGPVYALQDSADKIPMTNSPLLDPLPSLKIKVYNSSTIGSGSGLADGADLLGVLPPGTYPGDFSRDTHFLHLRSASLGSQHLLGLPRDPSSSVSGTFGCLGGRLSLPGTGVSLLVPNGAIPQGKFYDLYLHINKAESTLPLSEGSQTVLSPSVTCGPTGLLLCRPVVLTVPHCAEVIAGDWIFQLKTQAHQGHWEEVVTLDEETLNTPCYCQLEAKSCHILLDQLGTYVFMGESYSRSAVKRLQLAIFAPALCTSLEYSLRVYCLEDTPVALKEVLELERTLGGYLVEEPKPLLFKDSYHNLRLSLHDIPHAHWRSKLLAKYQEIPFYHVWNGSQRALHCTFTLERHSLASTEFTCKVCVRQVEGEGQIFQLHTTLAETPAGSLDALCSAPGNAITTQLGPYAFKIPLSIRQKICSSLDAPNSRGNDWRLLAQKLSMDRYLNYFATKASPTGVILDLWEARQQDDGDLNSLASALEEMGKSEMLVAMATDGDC

“recombinant netrin-1 (R&D Systems) (ligand)” showed an inhibition of anti-CD3 stimulated cytokine production in CD4+CD25- T cells: netrin-1 concentration with maximal inhibition of 500 ng/mL and an inhibition of anti-CD3 stimulated cytokine production in CD4+CD25- T cells: netrin-1 concentration with minimal effect of 100 ng/mL.
